T1: CD32b (UniProt P31994 46-217)
T1 construct: His-tagged; also called Fcγ receptor CD32b
T1 sequence (looked up): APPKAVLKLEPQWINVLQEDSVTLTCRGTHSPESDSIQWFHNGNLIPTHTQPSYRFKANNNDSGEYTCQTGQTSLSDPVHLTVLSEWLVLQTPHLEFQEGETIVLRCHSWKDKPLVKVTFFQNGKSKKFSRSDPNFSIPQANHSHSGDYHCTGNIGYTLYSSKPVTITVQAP

T2: CD32a(H) (UniProt P12318 36-218)
T2 construct: His-tagged; also called Fcγ receptor CD32a(H)
T2 sequence (looked up): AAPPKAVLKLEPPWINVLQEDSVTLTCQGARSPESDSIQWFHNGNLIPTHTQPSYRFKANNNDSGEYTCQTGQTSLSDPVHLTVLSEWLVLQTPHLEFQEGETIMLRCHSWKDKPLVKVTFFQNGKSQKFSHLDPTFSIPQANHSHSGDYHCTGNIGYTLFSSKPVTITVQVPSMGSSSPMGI

T3: CD32a(R) (UniProt P12318 36-218)
T3 construct: His-tagged; also called Fcγ receptor CD32a(R)
T3 sequence (looked up): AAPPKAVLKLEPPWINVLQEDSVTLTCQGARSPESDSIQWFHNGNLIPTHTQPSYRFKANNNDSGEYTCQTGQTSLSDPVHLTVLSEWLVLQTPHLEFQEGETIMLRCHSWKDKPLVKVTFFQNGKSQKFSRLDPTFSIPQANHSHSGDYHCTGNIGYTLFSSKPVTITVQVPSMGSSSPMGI


Legend:
[1] = molecular target: human C1q (human, UniProt P02745 23-245; P02746 28-253; P02747 29-245); experiment: ELISA: antibody titrated onto plate-coated human TNFα, then human C1q at 0.5 µg/mL, detected with rabbit anti-human C1q and HRP anti-rabbit IgG, absorbance 620 nm
Sequence of human C1q (P02745 23-245, chain 1 of 3): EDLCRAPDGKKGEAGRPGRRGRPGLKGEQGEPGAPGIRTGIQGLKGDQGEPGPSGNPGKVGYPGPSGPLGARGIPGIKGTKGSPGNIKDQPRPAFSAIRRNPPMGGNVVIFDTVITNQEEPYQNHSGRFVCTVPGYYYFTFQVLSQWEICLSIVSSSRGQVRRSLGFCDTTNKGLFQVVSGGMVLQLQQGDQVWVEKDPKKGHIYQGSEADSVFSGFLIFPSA
Sequence of human C1q (P02746 28-253, chain 2 of 3): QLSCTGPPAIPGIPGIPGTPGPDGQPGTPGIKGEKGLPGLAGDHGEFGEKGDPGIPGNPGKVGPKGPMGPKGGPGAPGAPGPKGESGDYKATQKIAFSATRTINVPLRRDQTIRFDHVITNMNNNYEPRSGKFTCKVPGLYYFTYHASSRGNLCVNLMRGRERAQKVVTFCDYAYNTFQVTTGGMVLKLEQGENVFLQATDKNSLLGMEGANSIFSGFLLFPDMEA
Sequence of human C1q (P02747 29-245, chain 3 of 3): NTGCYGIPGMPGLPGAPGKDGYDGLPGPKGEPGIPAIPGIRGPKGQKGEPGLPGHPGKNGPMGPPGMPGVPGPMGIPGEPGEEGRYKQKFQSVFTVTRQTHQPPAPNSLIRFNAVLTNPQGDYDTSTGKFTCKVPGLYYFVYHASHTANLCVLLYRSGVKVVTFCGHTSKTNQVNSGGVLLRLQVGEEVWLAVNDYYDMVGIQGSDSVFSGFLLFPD
Method: ELISA was performed using 96-well MaxiSorp plates where the wells were coated with human TNFα diluted to 1 μg/mL in PBS. After incubation O/N at 4° C., the plates were blocked with PBS containing 4% skimmed milk for 1 h and washed four times with PBS containing 0.05% Tween-20 (PBS-T). Then, titrated amounts of the anti-TNFα IgG antibodies were diluted in PBS-T, added and incubated for 1 h at RT. After washing using PBS-T, human C1q (0.5 μg/mL) was diluted in 0.1 M Veronal buffer (0.25 mM CaCl₂ and 0.8 mM MgCl₂ pH 7.2), added to the wells and incubated for 1 h. Subsequently, the wells were washed as above before rabbit anti-human C1q diluted 1:5000 in PBS-T was added to the wells and incubated for 1 h. After washing, an HRP-conjugated anti-rabbit IgG from donkey diluted 1:5000 in PBS-T was added. Subsequently, the wells were washed and 100 μL 3,3′,5,5′-Tetramethylbenzidine substrate was added to each well. The absorbance was measured at 620 nm using a Sunrise spectrophotometer.

[2] = molecular target: T4, monomeric His-tagged human FcRn (human, UniProt P55899 24-297; P61769 21-119); experiment: SPR (Biacore 3000), antibody amine-coupled, monomeric His-tagged hFcRn injected, pH 6.0; pH 6.0
T4 construct: also called hFcRn
Method: (§1) SPR was performed using a Biacore 3000 instrument with CM5 sensor chips coupled with anti-TNFα IgG1 antibodies (˜500 resonance units (RU)) using amine-coupling chemistry as described by the manufacturer. The coupling was performed by injecting 2.0 ug/mL of each protein in 10 mM sodium acetate, pH 4.5, using the amine-coupling kit (GE Healthcare). […] All SPR experiments were conducted at 25° C. with a flow rate of 40 ul/min. Binding data were zero-adjusted, and reference cell value subtracted. The Langmuir 1:1 ligand binding model provided by the BIAevaluation software (version 4.1) was used to determine the binding kinetics.

[3] = molecular target: T5, CD16a(V) (UniProt P08637 17-208); experiment: SPR (Biacore), His-tagged FcγR captured on anti-His chip, antibody as analyte
T5 construct: His-tagged; also called Fcγ receptor CD16a(V)
T5 sequence (P08637 17-208 F176V limits assumed): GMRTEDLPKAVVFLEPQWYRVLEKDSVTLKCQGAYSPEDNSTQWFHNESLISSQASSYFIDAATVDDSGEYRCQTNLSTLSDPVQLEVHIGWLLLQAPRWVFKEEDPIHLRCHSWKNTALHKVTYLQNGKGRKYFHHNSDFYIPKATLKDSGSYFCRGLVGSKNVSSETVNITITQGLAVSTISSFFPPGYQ
Method: (§2) Affinity to FcγRs was measured by Biacore. A CM5 chip was prepared using standard amine immobilisation Biacore procedures. Upon insertion of a CM5 chip the system was primed and then normalised with BIA-normalizing solution (Biacore Preventative Maintenance Kit 2). The chip was added to the system with Phosphate Buffered Saline Tween-20 (PBS-T) running buffer; prior to immobilisation the chip surface was primed with three injections of 50 mM NaOH. FcγRs were immobilised on the chip surface using a His-tag capture system. The anti-His tag chip was prepared according to the Biacore kit instructions, with ˜12000 RU's of the antibody deposited on all 4 flow cells. To remove non-covalently bound material from all the chip flow cells, three 30 second 10 mM glycine pH 1.5 washes were performed. The Fcγ receptors were diluted in PBS-T to a range of 0.5-2 μg/mL, with 2.5-5.0 μL injected onto the chip generating capture levels between 60 and 200 RU's. Antibodies were diluted into PBS-T prior to analysis. Single cycle kinetics were used to estimate the steady state affinity. For each single cycle analysis cycle a titration of 5 antibody concentrations were injected over the FcγR ligand and then the dissociation of the complex was measured. The surface was regenerated using the recommended solution, 10 mM glycine pH 1.5 for the anti-His capture surface. A double referencing method was employed in which data from the ligand bound capture surface (fc 2 and 4) were subtracted from the references surfaces where no ligand was captured (fc 1 and 3 respectively). Blank injections of buffer were run for every antibody titration cycle and then subtracted from analyte injection cycles, to correct for small changes in the ligand capture surface. All analysis was performed at 25° C. and the sample rack was incubated at 10° C. during experimental runs. Each experiment was run at least three times.

[4] = molecular target: T6, human TNFα (human, UniProt P01375 77-233); experiment: SPR (Biacore), antibody captured on Protein A, TNFα as analyte, single cycle kinetics, 25 C
T6 construct: also called recombinant TNFα
T6 sequence (P01375 77-233 limits assumed): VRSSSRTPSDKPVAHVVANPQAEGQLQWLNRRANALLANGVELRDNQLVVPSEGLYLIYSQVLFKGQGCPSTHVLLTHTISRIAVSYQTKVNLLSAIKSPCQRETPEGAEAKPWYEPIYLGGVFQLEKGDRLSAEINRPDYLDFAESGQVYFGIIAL
Method: Affinity to TNFα was measured by Biacore. A CM5 chip was prepared using standard amine immobilisation Biacore procedures. Upon insertion of a CM5 chip the system was primed and then normalised with BIA-normalising solution (Biacore Preventative Maintenance Kit 2). The chip was added to the system with PBS-T running buffer; prior to immobilisation the chip surface was primed with three injections of 50 mM NaOH. Protein A was immobilised on the chip surface. For this, the protein was diluted to 5 μg/mL into 10 mM acetate buffer at pH 4.5 and injected so to generate a bound response of ˜1000 RU's in all 4 flow cells. To remove non-covalently bound material from all the chip flow cells, three 15 second 50 mM NaOH washes were performed. On the Protein A chip, antibody was captured in flow cells 2 and 4, with flow cells 1 and 3 used for reference subtraction. The trial antibodies were diluted in PBS-T to 10 nM and 2.5-7.5 uL injected to obtain 120 RU of captured antibody. […] For each single cycle analysis cycle a titration of 5 analyte concentrations were injected over the ligand and then the dissociation of the complex was measured. The surface was regenerated using glycine pH 1.7. A double referencing method was employed in which data from the ligand bound capture surface (fc 2 and 4) were subtracted from the references surfaces where no ligand was captured (fc 1 and 3 respectively). Blank injections of buffer were run every 3-4 cycles and then subtracted from analyte injection cycles, to correct for small changes in the ligand capture surface. Repeat injections of analyte at the start and end of each analytical run were used to check for sample degradation, or changes in the instrument performance. All analysis was performed at 25° C. and the sample rack was incubated at 10° C. during experimental runs. Each experiment was run at least three times. A 1-to-1 binding model was used to fit the resulting kinetic data.

[5] = molecular target: T1, CD32b; experiment: SPR (Biacore), His-tagged FcγR captured on anti-His chip, antibody as analyte
Method: as §2

[6] = molecular target: T7, CD64 (UniProt P12314 16-288, limits assumed); experiment: as above
T7 construct: His-tagged (captured on an anti-His chip); also called Fcγ receptor CD64
T7 sequence (P12314 16-288 limits assumed): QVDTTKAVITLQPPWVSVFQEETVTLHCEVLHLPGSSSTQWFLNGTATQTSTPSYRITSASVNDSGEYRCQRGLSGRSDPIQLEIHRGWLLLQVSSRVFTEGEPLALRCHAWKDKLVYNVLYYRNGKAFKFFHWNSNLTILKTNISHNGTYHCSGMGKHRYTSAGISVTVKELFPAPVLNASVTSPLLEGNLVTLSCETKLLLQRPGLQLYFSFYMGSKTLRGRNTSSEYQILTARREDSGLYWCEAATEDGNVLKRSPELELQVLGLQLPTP
Method: as §2

[7] = molecular target: T2, CD32a(H); experiment: as above
Method: as §2

[8] = molecular target: T4, monomeric His-tagged human FcRn; experiment: SPR, pH 6.0; KD against that of IFX; pH 6.0; fold change from IFX
Method: as §1

[9] = molecular target: T4, monomeric His-tagged human FcRn; experiment: SPR, pH 6.0; KD against that of Ab-wt; pH 6.0; fold change from wt
Method: as §1

[10] = molecular target: T6, human TNFα; experiment: cell-based or functional assay
[11] = molecular target: T8, CD16b(NA2) (UniProt O75015 17-200, limits assumed); experiment: SPR (Biacore), His-tagged FcγR captured on anti-His chip, antibody as analyte
T8 construct: His-tagged
T8 sequence (O75015 17-200 N65S limits assumed): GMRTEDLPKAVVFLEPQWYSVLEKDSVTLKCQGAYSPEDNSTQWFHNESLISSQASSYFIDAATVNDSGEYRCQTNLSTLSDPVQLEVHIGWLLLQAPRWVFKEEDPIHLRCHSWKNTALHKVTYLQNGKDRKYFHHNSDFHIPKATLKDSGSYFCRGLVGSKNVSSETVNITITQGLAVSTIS
Method: as §2

[12] = molecular target: T9, CD16a(F) (UniProt P08637 17-208); experiment: as above
T9 construct: His-tagged
T9 sequence (P08637 17-208 limits assumed): as the sequence (P08637 17-208 F176V limits assumed) above, with V160F counted along it
Method: as §2

[13] = molecular target: T3, CD32a(R); experiment: as above
Method: as §2

[14] = molecular target: T5, CD16a(V); experiment: SPR (Biacore), His-tagged FcγR captured; reference not named in the sentence (Ab-wt by Table 5)
Method: Affinity to FcγRs was measured by Biacore. A CM5 chip was prepared using standard amine immobilisation Biacore procedures. Upon insertion of a CM5 chip the system was primed and then normalised with BIA-normalizing solution (Biacore Preventative Maintenance Kit 2). The chip was added to the system with Phosphate Buffered Saline Tween-20 (PBS-T) running buffer; prior to immobilisation the chip surface was primed with three injections of 50 mM NaOH. FcγRs were immobilised on the chip surface using a His-tag capture system. The anti-His tag chip was prepared according to the Biacore kit instructions, with ˜12000 RU's of the antibody deposited on all 4 flow cells. To remove non-covalently bound material from all the chip flow cells, three 30 second 10 mM glycine pH 1.5 washes were performed. The Fcγ receptors were diluted in PBS-T to a range of 0.5-2 μg/mL, with 2.5-5.0 μL injected onto the chip generating capture levels between 60 and 200 RU's. Antibodies were diluted into PBS-T prior to analysis. Single cycle kinetics were used to estimate the steady state affinity. For each single cycle analysis cycle a titration of 5 antibody concentrations were injected over the FcγR ligand and then the dissociation of the complex was measured. The surface was regenerated using the recommended solution, 10 mM glycine pH 1.5 for the anti-His capture surface. […]

EC50 (read off the curve) [1] [µg/mL]	Kd [2] [nM]	Kd [3] [nM]	Kd [4] [nM]	koff [4] [s⁻¹]	kon [4] [M⁻¹ s⁻¹]	Kd [5] [nM]	Kd [6] [nM]	Kd [7] [nM]	Fold change from IFX [8] [fold]	Fold change from wt [9] [fold]	IC50 (read off the curve) [10] [µg/mL]	Kd [11] [nM]	Kd [12] [nM]	Kd [13] [nM]	fold increase in affinity [14] [fold]	Binder
~0.5																infliximab (antibody) chain 1: not shown chain 2: DILLTQSPAILSVSPGERVSFSCRASQFVGSSIHWYQQRTNGSPRLLIKYASESMSGIPSRFSGSGSGTDFTLSINTVESEDIADYYCQQSHSWPFTFGSGTNLEVKRTVAAPSVFIFPPSDEQLKSGTASVVCLLNNFYPREAKVQWKVDNALQSGNSQESVTEQDSKDSTYSLSSTLTLSKADYEKHKVYACEVTHQGLSSPVTKSFNRGEC
~0.6	6.24	33.5			5.8e+06	1130	2.93	1870	68.1	160	~0.007	400	150	1450	5.5	Ab-REW-2FF (antibody, human IgG1, kappa, N-glycans at N297 (EU numbering) with greatly reduced fucose (13% fucosylated), made with 2-deoxy-2-fluoro-fucose (2FF) in the culture medium, IgG1; also called non-fucosylated variant of Ab-REW) heavy: EVQLVESGGGLVQPGGSLRLSCKASGIDFNNYGIGWVRQAPGKGLEWITYIYPGFAITNFANSVKGRFTISSDNSKNTVYLQMNSLRAEDTAVYYCARDPVYATSSGYFDLWGQGTLVTVSSASTKGPSVFPLAPSSKSTSGGTAALGCLVKDYFPEPVTVSWNSGALTSGVHTFPAVLQSSGLYSLSSVVTVPSSSLGTQTYICNVNHKPSNTKVDKKVEPKSCDKTHTCPPCPAPELLGGPSVFLFPPKPKDTLMISRTPEVTCVVVDVSHEDPEVKFNWYVDGVEVHNAKTKPREEQYNSTYRVVSVLTVLHRDWLNGKEYKCKVSNKALPAPIEKTISKAKGQPREPQVYTLPPSREEMTKNQVSLTCLVKGFYPSDIAVEWESNGQPENNYKTTPPVLDSDGSFFLYSKLTVDKSRWQQGNVFSCSVEHEALHWHYTQKSLSLSPGK light: DIQMTQSPSSLSASVGDRVTIKCQASQSIFSGLAWYQQKPGKAPKLLIYGASKLASGVPSRFSGSGSGTEFTLTISGLQPADFATYYCQSYYYSSSSSDGSYAFGGGTKLTVLGRTVAAPSVFIFPPSDEQLKSGTASVVCLLNNFYPREAKVQWKVDNALQSGNSQESVTEQDSKDSTYSLSSTLTLSKADYEKHKVYACEVTHQGLSSPVTKSFNRGEC

Second part, the binder before the results:

Binder	EC50 (read off the curve) [1] [µg/mL]	Kd [2] [nM]	Kd [3] [nM]	Kd [4] [nM]	koff [4] [s⁻¹]	kon [4] [M⁻¹ s⁻¹]	Kd [5] [nM]	Kd [6] [nM]	Kd [7] [nM]	Fold change from IFX [8] [fold]	Fold change from wt [9] [fold]	IC50 (read off the curve) [10] [µg/mL]	Kd [11] [nM]	Kd [12] [nM]	Kd [13] [nM]	fold increase in affinity [14] [fold]
Ab-wt (antibody, human IgG1, kappa, Human IgG1 anti-TNFα antibody with wild-type Fc; also called parent antibody; wild-type antibody) heavy: not shown light: DIQMTQSPSSLSASVGDRVTIKCQASQSIFSGLAWYQQKPGKAPKLLIYGASKLASGVPSRFSGSGSGTEFTLTISGLQPADFATYYCQSYYYSSSSSDGSYAFGGGTKLTVLGRTVAAPSVFIFPPSDEQLKSGTASVVCLLNNFYPREAKVQWKVDNALQSGNSQESVTEQDSKDSTYSLSSTLTLSKADYEKHKVYACEVTHQGLSSPVTKSFNRGEC		1000	184	0.00413	3.45e-05	8.37e+06	3140	2.92	670							
Ab-REW (antibody, human IgG1, kappa, IgG1; also called REW containing variant; Q311R/M428E/N434W variant of Ab-wt) heavy: EVQLVESGGGLVQPGGSLRLSCKASGIDFNNYGIGWVRQAPGKGLEWITYIYPGFAITNFANSVKGRFTISSDNSKNTVYLQMNSLRAEDTAVYYCARDPVYATSSGYFDLWGQGTLVTVSSASTKGPSVFPLAPSSKSTSGGTAALGCLVKDYFPEPVTVSWNSGALTSGVHTFPAVLQSSGLYSLSSVVTVPSSSLGTQTYICNVNHKPSNTKVDKKVEPKSCDKTHTCPPCPAPELLGGPSVFLFPPKPKDTLMISRTPEVTCVVVDVSHEDPEVKFNWYVDGVEVHNAKTKPREEQYNSTYRVVSVLTVLHRDWLNGKEYKCKVSNKALPAPIEKTISKAKGQPREPQVYTLPPSREEMTKNQVSLTCLVKGFYPSDIAVEWESNGQPENNYKTTPPVLDSDGSFFLYSKLTVDKSRWQQGNVFSCSVEHEALHWHYTQKSLSLSPGK light: DIQMTQSPSSLSASVGDRVTIKCQASQSIFSGLAWYQQKPGKAPKLLIYGASKLASGVPSRFSGSGSGTEFTLTISGLQPADFATYYCQSYYYSSSSSDGSYAFGGGTKLTVLGRTVAAPSVFIFPPSDEQLKSGTASVVCLLNNFYPREAKVQWKVDNALQSGNSQESVTEQDSKDSTYSLSSTLTLSKADYEKHKVYACEVTHQGLSSPVTKSFNRGEC	~0.4	5.61	280	0.0033	2.04e-05	6.22e+06	1210	2.8	780	75.8	178	~0.007	1650	2410	1600	

— US20240343793A1 (TILLOTTS PHARMA, published 2024)
